Numbering of substitutions follows the chain as printed.

The target of this assay is T1, recombinant human LAG-3 (human, UniProt P18627 23-450, limits assumed).
T1 sequence (looked up): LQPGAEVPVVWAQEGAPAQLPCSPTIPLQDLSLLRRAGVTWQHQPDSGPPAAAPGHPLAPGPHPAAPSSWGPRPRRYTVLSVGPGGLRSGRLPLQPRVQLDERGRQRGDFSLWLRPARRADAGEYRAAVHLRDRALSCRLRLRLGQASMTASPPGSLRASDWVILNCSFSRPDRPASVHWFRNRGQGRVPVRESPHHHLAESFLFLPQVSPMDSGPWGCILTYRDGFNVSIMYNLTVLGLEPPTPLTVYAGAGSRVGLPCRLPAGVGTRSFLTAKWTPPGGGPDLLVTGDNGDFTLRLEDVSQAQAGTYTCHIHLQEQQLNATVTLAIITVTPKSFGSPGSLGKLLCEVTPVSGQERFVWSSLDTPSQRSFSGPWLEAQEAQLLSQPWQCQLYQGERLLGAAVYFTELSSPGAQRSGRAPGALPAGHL
Kind of assay: surface plasmon resonance (data not shown). (In general: In SPR one partner is held on a chip, and binding of the other changes the refractive index at the surface.)

B1: P13B02-12 (antibody, IgG1, V domains shown)
VH: QVQLVQSGAEVKKPGASVKVSCKASGFNIKDTYIHWVRQAPGQGLEWMGEIDPANDNTKYDPKFQGRVTITADTSSNTVYMELSSLRSEDTAVYYCATYYYRYDVGGFDYWGQGTLVTVSS
VL: EIVLTQSPGTLSLSPGERATLSCSVSSSISSSNLHWYQQKPGQAPRLLIYGTSNLASGIPDRFSGSGSGTSYTLTISRLEPEDFAVYYCQQWSSYPFTFGQGTKVEIK
notes: Humanized; generated as full length IgG1
In the case of B1, the binding result is given as “binds”.

B2: P13B02-11 (antibody, IgG1, V domains shown)
VH: B1 VH
VL: B1 VL with S71D, Y72F
notes: as for B1
On to B2, for which the binding result is “binds”.

B3: P13B02-15 (antibody, IgG1, V domains shown)
VH: B1 VH
VL: B1 VL with V3L, S22T, Y37F, A44S, L48W, I59V
notes: as for B1
In the case of B3, the binding result was “binds”.

B4: P13B02-17 (antibody, IgG1, V domains shown)
VH: B1 VH with L4M, V5K, K23T
VL: B1 VL
notes: as for B1
B4: the binding result is given as “binds”.

B5: P13B02-04 (antibody, IgG1, V domains shown)
VH: B1 VH with I70M, A72R, S76T, N77S, T98R
VL: B1 VL with V3L, Y37F, L48W, I59V
notes: as for B1
For the molecule B5, the binding result is listed as “binds”.

B6: P13B02-19 (antibody, IgG1, V domains shown)
VH: B1 VH with L4M, V5K, K23T
VL: B1 VL with V3L, Y37F, L48W, I59V
notes: as for B1
With B6, the binding result is “binds”.

B7: P13B02-01 (antibody, IgG1, V domains shown)
VH: B1 VH with I70M, A72R, S76T, N77S, T98R
VL: B1 VL with S71D, Y72F
notes: as for B1
For B7, the binding result is reported as “binds”.

B8: P13B02-14 (antibody, IgG1, V domains shown)
VH: B1 VH
VL: B1 VL with V3L, Y37F, L48W, I59V
notes: as for B1
For the molecule B8, the binding result is “binds”.

B9: P13B02-08 (antibody, IgG1, V domains shown)
VH: B1 VH with S76T, N77S
VL: B1 VL with V3L, Y37F
notes: as for B1
In the case of B9, the binding result is given as “binds”.

B10: P13B02-02 (antibody, IgG1, V domains shown)
VH: B1 VH with I70M, A72R, S76T, N77S, T98R
VL: B1 VL
notes: as for B1
As for B10, the binding result is listed as “binds”.

B11: P13B02-03 (antibody, IgG1, V domains shown)
VH: B1 VH with I70M, A72R, S76T, N77S, T98R
VL: B1 VL with V3L, Y37F
notes: as for B1
For the molecule B11, the binding result was “binds”.

B12: P13B02-13 (antibody, IgG1, V domains shown)
VH: B1 VH
VL: B1 VL with V3L, Y37F
notes: as for B1
Turning to B12, the binding result is recorded as “binds”.

B13: P13B02-10 (antibody, IgG1, V domains shown)
VH: B1 VH with S76T, N77S
VL: B1 VL with V3L, S22T, Y37F, A44S, L48W, I59V
notes: as for B1
With B13, the binding result is on record as “binds”.

B14: P13B02-05 (antibody, IgG1, V domains shown)
VH: B1 VH with I70M, A72R, S76T, N77S, T98R
VL: B1 VL with V3L, S22T, Y37F, A44S, L48W, I59V
notes: as for B1
In the case of B14, the binding result is listed as “binds”.

B15: P13B02-20 (antibody, IgG1, V domains shown)
VH: B1 VH with L4M, V5K, K23T
VL: B1 VL with V3L, S22T, Y37F, A44S, L48W, I59V
notes: as for B1
In the case of B15, the binding result was “binds”.

B16: P13B02-18 (antibody, IgG1, V domains shown)
VH: B1 VH with L4M, V5K, K23T
VL: B1 VL with V3L, Y37F
notes: as for B1
B16: the binding result is listed as “binds”.

B17: P13B02-09 (antibody, IgG1, V domains shown)
VH: B1 VH with S76T, N77S
VL: B1 VL with V3L, Y37F, L48W, I59V
notes: as for B1
Regarding B17, the binding result is on record as “binds”.

The values above are taken from patent US20250206818A1 (AGENUS, published 2025).
